# Measured values taken from the nanobody polyreactivity screen of Harvey et al. (2022).
# Test: yeast display, Sf9 membrane polyspecificity reagent, FACS + sequencing; frameworks hold sequencing errors
# Outline: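 Nanobodies from a synthetic yeast display library (Saccharomyces cerevisiae BJ5465), induced 36–48 hours with galactose, were stained 1 hour at 4 °C with 10% biotinylated, detergent-solubilized Sf9 membrane reagent, enriched on streptavidin microbeads, then FACS-sorted. Anti-HA (expression) and streptavidin (reagent binding) fluorescence set low and high (top ~1%) gates. Polyreactivity labels come from the gate of origin. Genes were colony-PCR amplified, MiSeq 2 × 250 sequenced and filtered by CDR length.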
row,Sequence,polyreactivity (PSR sort gate)
1,QVQLVESGGGLVQAGGSLRLSCAASGLTFRYNAMGWYRQAPGKERELVARISRNGGRTYYADSVKGRFTISRDNAKNTVYLQMNSLKPEDTAVYYCNVVYFVTTSPGYDYWGQGTQVTVSS,high polyreactivity
2,QVQLVESGGGLVQAGGSLRLSCAASGLTFRYNTMGWYRQAPGKEREFVAAINYGGGSTYYADSVKGRFTISRDNAKNTVYLQMNSLKPEDTAVYYCARRTPRTPVTLYDYWGQGTQVTVSS,high polyreactivity
3,QVQLVESGGGLVQAGGSLRLSCAASGLTFRYYAMGGYRQAPGKERELDAAITSSGTSTYYADSVKGRFTISRDNAKNTVSLQMNSLKPEDTAVYYCAARYSGGTWSGYNYWGQGTQVTVSS,high polyreactivity
4,QVQLVESGGGLVQAGGSLRLSCAASGLTFRYYAMGWYRQAPGKERELVAAITRGARTNYADSVKGRFTISRDNAKNTVYLQMNSLKPEDTAVYYCNAGFTGLHRYGYWGQGTQVTVSS,high polyreactivity
5,QVQLVESGGGLVQAGGSLRLSCAASGLTFRYYAMGWYRQAPGKERELVATITGSGGSTYYADSVKGRFTISRDNAKNTVYFQMNSLNPEYTAVYYCAATVRVYDYWGQGTQVNVSS,high polyreactivity
6,QVQLVESGGGLVQAGGSLRLSCAASGLTFSGYAMGWYRQAPGKERELVAAISWRGGSTYYADSVKGRFTISRDNAKNTVYLQMNSLKPEDTAVYYCNRARVQDYPYYYWGQGTQVTVSS,high polyreactivity
7,QVQLVESGGGLVQAGGSLRLSCAASGLTFSGYSMGWYRQAPGKERELVAAITSGGNTYYADSVNGRFTISRDNAKNTVYLQMNSLKPEDTAVYYCNVADWRRWGYDYWGQGTQVTVSS,low polyreactivity
8,QVQLVESGGGLVQAGGSLRLSCAASGLTFSGYVMGWYRQAPGKERELVAAISSSGGRTYYADSVKGRFTISRDNAKNTVYLQMNSLKPEDTAVYYCAARNKYGGYPYGYDYWGQGTQVTVSS,high polyreactivity
9,QVQLVESGGGLVQAGGSLRLSCAASGLTFSIYAMGWYREAPGKERELVAAITGRGGRTYYADSVKGRFTISRDNAKNTVYLQMHSLKPEDTAVYYCAARYRGTDFDYWGQGTQVTVSS,high polyreactivity
10,QVQLVESGGGLVQAGGSLRLSCAASGLTFSIYAMGWYRQEPGKERELVARITWNSGSTYYADSVKGRFTISRDNAKNTVYLQMNSLKPEDTAVYYCNARFWGSGVGDLWEGVRYDYWGQGTQVTVSS,high polyreactivity
11,QVQLVESGGGLVQAGGSLRLSCAASGLTFSKNVMGWYRQAPGKERELVAAISGITSSTYYADSVKGRFTISRDNAKNTVYLQMNSLKPEDTAVYYCAADLSFSRPGRFGYWGQGTQVTVSS,high polyreactivity
12,QVQLVESGGGLVQAGGSLRLSCAASGLTFSKYVMGWYIQAPGKERELVAAITWSGGRTYYADSVKGRFTISRDNAKNTVYLQMNSLKPEDTAVYYCNRKLKGLGYEYDYWGQGTQVTVSS,high polyreactivity
13,QVQLVESGGGLVQAGGSLRLSCAASGLTFSPNAMGWYRQAPRKERELVAAISSSGGRTNYADSVKGRFTISRDNAKNTVYLQMNSLKPEDTAFYYCAARFYKTYPRMNYWGQGTQVTVSS,high polyreactivity
14,QVQLVESGGGLVQAGGSLRLSCAASGLTFSPYAMGWSRQAPGKERELVATITIGGSTKYADSVKGRFTISRDNAKNTVYLQMNSLKPEDSAVYYCAVRSGYVTRSYEYWGQGTQVTVSS,low polyreactivity
15,QVQLVESGGGLVQAGGSLRLSCAASGLTFSRYAMGWYRQAPGKERELVAAISSSGTRTYYADSVKGRFTISPDNPKNTVYLQMNSLKPEDTAVYYCNAYYAPRGYGYWGQGTQVTVSS,high polyreactivity
16,QVQLVESGGGLVQAGGSLRLSCAASGLTFSRYAMGWYRQAPGKERELVAAITWSGSSTYYADSVKGRFTISRDNAKNTVYLQMNSLKPEDTAVYYCAARYGYSRGPYYRSDYWGQGTQVNVSS,high polyreactivity
17,QVQLVESGGGLVQAGGSLRLSCAASGLTFSVNAMGWYRQAPGKERELVAAINYGGGSTYYADSVKGRFTISRDNAKNTVYLQMNSLKPEDTAVYYCAAVPYPRGKGYDYWGQGTQVTVSS,high polyreactivity
